Measured values taken from patent US20250206841A1 (ADEPT THERAPEUTICS, published 2025).
Changes are numbered by the printed parent chain.

T1: human Trop-1 (EpCAM) (human, UniProt P16422 24-265, limits assumed)
T1 sequence (looked up): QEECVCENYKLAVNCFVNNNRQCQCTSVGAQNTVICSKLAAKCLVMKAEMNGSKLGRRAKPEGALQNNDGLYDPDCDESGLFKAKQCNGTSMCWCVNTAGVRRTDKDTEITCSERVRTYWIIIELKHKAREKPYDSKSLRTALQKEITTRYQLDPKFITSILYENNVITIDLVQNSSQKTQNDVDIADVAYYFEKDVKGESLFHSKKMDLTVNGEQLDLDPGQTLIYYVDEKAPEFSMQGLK

T2: mouse Trop-2 (mouse, UniProt Q8BGV3 25-270, limits assumed)
T2 construct: also called Kactus Cat #TRP-MM121
T2 sequence (looked up): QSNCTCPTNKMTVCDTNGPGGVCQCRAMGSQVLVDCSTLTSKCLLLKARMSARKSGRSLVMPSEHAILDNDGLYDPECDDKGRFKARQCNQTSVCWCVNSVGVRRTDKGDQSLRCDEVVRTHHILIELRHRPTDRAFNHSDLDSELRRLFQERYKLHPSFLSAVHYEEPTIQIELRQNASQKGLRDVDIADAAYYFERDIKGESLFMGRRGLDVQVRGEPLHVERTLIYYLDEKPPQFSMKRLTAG

T3: rat Trop-2 (rat, UniProt Q6P9Z6 25-270, limits assumed)
T3 sequence (looked up): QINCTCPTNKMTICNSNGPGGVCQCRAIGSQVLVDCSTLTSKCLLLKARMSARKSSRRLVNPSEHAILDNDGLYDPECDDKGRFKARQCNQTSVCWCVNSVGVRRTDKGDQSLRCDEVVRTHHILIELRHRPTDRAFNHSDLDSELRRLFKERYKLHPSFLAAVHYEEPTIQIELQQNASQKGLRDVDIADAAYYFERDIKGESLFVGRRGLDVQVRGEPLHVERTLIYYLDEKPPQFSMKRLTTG

T4: human Trop-2-His protein (human, UniProt P09758 27-274)
T4 construct: extracellular domain; Assay paragraphs say only 'Trop-2-His'; also called hTrop-2; Kactus Cat #TRP-HM121; not shown: His tag
T4 sequence (looked up): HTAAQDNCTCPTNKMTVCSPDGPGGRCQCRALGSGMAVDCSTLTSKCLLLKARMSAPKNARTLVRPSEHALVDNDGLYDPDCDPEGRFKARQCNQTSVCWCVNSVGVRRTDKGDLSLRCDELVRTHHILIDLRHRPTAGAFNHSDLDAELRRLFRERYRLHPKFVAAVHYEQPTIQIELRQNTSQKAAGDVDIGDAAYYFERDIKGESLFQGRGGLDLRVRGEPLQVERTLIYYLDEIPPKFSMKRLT

B1: 63H3 (antibody, V domains shown)
VH: QEQLKESGGGLVQPGGSLKLSCKASGFDFNSYGVSWVRQAPGKGLEWIAYIYPAFHNAYYANWVNGRFTISSDNAQNTVDLQLNSLTAADTATYFCARDAGGTDYNYNLWGPGTLVTVSS
VL: DVVMTQTPASVEVAVGGTVTLKCQASEDIESYSAWYQQKPGQPPNLLIYEASKLASGVSSRFSGSGYGTEFTLTISGVECADAATYYCQQALTIGNVDNPFGGGSEVVVR
notes: Rabbit-derived clone; LEM construct: VH + rabbit IgG CH1 + human IgG1 CH2-CH3
B2: 65D5 (antibody, V domains shown)
VH: B1 VH with S31A, A58T, N62T, D73H, V79L, D80Y, S85T, G102T, Y107F
VL: DIVMTQTPASVSEPVGGTVTIKCQASQSISSYLAWYQQKPGQPPKLLIYEATKLTSGVSSRFSGSGYGTEFTLTISGVECADAATYYCQQALTVGDVDNPFGGGSEVVVK
notes: as for B1
B3: 66A1 (antibody, V domains shown)
VH: B1 VH with S31N, A58T, N62S, D73H, V79L, D80Y, N106A
VL: DVVMTQTPASVEAAVGGTVSINCQASEDIESYLAWYQQKPGQPPKLLIYKASTLASGVSSRFKGSGSGKQFTLTISGVECADAATYYCQQVLTIGNVDNPFGGGSEVVVK
notes: as for B1
B4: 10A9 (antibody, V domains shown)
VH: QSLEESGGDLVQPGASLTLTCKASGFDLNNYAMLWVRQAPGKGLEWIGCIYISGGTTYFASWATGRFAISKTSSTTVTLQMTSLTAADTATYFCARDDGTTSYYLNLWGPGTLVTVSS
VL: YDMTQTPASVSAAVGGTVTIKCQASEDIYSLLAWYQQKPGQPPKLLIYGASNLESGVPSRFKGSGSGTEYTLTISDLECDDAATYYCQQAYTIGNIDNAFGGGTEVVVK
notes: as for B1
B5: 5D4 (antibody, V domains shown)
VH: QQLEESGGGLVKPEGSLTLTCKGSGFDFSGTYWMWWVRQAPGKGLEWIACIYVGSGSSTYYASWAKGRFTISSTSSTAVTLQATSLTAADTATYFCARGATNNVFMNYFNLWGPGTLVTVSS
VL: FEMTQTPSSVSEPVGGTVTIKCQASEDISSNLGWYQQKPGQPPKLLIYGASTLASGVPSRFKGSGSGTEFTLTISDLECADAATYYCQTSYYIDDGVNGFGGGTEVVVK
notes: as for B1

The binders below were run against T1, human Trop-1 (EpCAM) (assay: ELISA, similar to Table 24).
Method: (§1) Purified antibodies were tested by ELISA to confirm their binding and affinity against human and cynomolgus Trop-2-His protein. Briefly, 96-well Maxisorp plates (Nunc) were coated with 100 μl/well of 0.5 μg/ml human (Kactus Cat #TRP-HM121, or Sino Biological, Cat #10428-HO8H) or cynomolgus Trop-2 protein (Kactus Cat #TRP-CM121, or Sino Biological, Cat #90893-CO8H) diluted in 1×PBS (GIBCO) overnight at 4° C. Plates were washed four times with 300 μl/well washing buffer (1×PBST, diluted from 20×PBST (Thermo Scientific) with distilled water)) and then blocked with 300 μl/well of blocking buffer (1×PBST/3% BSA (BSA, Sigma)) for 2 hours at RT on plate shaker at 100 rpm. Plates were washed and added with 100 μl/well of testing antibodies, which were serial diluted with assay buffer (PBST/1% BSA). The antibodies were incubated at room temperature for 2 hours on plate shaker at 100 rpm. Plates were washed. One hundred microliters (100 μl) of 1:10,000 diluted horseradish peroxidase (HRP) conjugated anti-hIgG antibody (Jackson Immuno Research) was added into each well and incubated at room temperature for 1 hour on plate shaker at 100 rpm. Plates were washed and added with 100 μl/well TMB substrate for color development in dark at room temperature for up to 10 minutes. After addition of 50 μl/well of stop solution (1N H₂SO₄), plates were read at 450 nm on a plate reader (SpectraMax M5). EC₅₀ values were calculated using Graphpad Prism. Sacituzumab govitecan, was used as positive control. Anti-HEL.hIgG1 was used as isotype control.
(§2) Similar assays were performed to test whether the exemplary antibodies of the present disclosure bind to human Trop-1 (EpCAM) or mouse Trop-2 (Kactus, Cat #TRP-MM121) or rat Trop-2 (kactus, Cat #TRP_RM121). No binding of the exemplary antibodies of the present disclosure to human Trop-1 (EpCAM) or mouse or rat Trop-2 has been detected.

Does B1 bind?
Result: no binding

Does B2 bind?
Result: no binding

Does B3 bind?
Result: no binding

Does B4 bind?
Result: no binding

Does B5 bind?
Result: no binding

What follows are binders tested against T2, mouse Trop-2 (assay: ELISA, similar to Table 24).
Method: as §1, §2

Does B1 bind?
Result: no binding

Does B2 bind?
Result: no binding

Does B3 bind?
Result: no binding

Does B4 bind?
Result: no binding

Does B5 bind?
Result: no binding

The binders below were run against T3, rat Trop-2 (assay: ELISA, similar to Table 24).
Method: as §1, §2

Does B1 bind?
Result: no binding

Does B2 bind?
Result: no binding

Does B3 bind?
Result: no binding

Does B4 bind?
Result: no binding

Does B5 bind?
Result: no binding

These binders were tested against T4, human Trop-2-His protein (assay: BLI (Gator Plus), purified Ab on HFC probe).
Method: The affinity of the binding of the exemplary anti-Trop-2 antibodies of the present disclosure were determined. Assay was performed using Gator Plus according to the protocol recommended by Gator Bio Inc.. Briefly, human Trop-2-His (Kactus) was 1:4 fold serially diluted starting at 1 μg/ml. After three times of regeneration and neutralization of HFC probe, 1 μg/ml of antibody to be tested in Q buffer was immobilized onto HFC probe. […] The association and dissociation of human Trop-2-His antigen from antibody was measured on BLI machine Gator Plus. Affinity was calculated using Gator Bio analysis software. Blank control was used for reference subtraction. Sacituzumab govitecan was used as positive control.

Which results are given for B1?
Kd: 0.03 nM; koff: 2.5e-05 s⁻¹; kon: 766000 M⁻¹ s⁻¹

B2 was tested. Which Kd did it give?
The Kd was 1.1 nM.

And the koff?
The koff was 0.000898 s⁻¹.

What about the kon of the same binder?
The kon was 819000 M⁻¹ s⁻¹.

What does the source list for B3?
Kd: 0.25 nM; koff: 0.000193 s⁻¹; kon: 788000 M⁻¹ s⁻¹

B4 was tested. Which Kd did it give?
The Kd was 0.18 nM.

What about the koff of the same binder?
Its koff is 8.2e-05 s⁻¹.

What about the kon of the same binder?
Its kon is 448000 M⁻¹ s⁻¹.

Which Kd does the source give for B5 here?
The Kd was 0.03 nM.

And the koff?
Its koff is 1.3e-05 s⁻¹.

And the kon?
Its kon is 522000 M⁻¹ s⁻¹.

The binders below were run against T4, human Trop-2-His protein (assay: BLI (Gator Prime), LEM supernatant Ab on HFC probe).
Method: After three times of regeneration and neutralization of HFC probe (Gator, Cat #160003), LEM transfection supernatant samples to be tested in K buffer was diluted 1:1 in K buffer and immobilized onto HFC probe. […] The association and dissociation of human or cynomolgus Trop-2-His antigen from antibody was measured on BLI machine Gator Prime. Affinity was calculated using Gator Bio analysis software. Blank control was used for reference subtraction. 1 μg/ml of Sacituzumab govitecan was used as positive control.
Table 23 below summarizes the binding affinity of exemplary anti-Trop-2 antibodies in LEM transfection supernatant samples to human and cynomolgus Trop-2 using Gator.

B1 was tested. Which Kd did it give?
The Kd was 0.22 nM.

What about the koff of the same binder?
Its koff is 0.00016 s⁻¹.

And the kon?
Its kon is 704000 M⁻¹ s⁻¹.

For B2, which Kd is on record?
The Kd was 0.656 nM.

And the koff?
Its koff is 0.00046 s⁻¹.

What about the kon of the same binder?
Its kon is 706000 M⁻¹ s⁻¹.

B3 was tested. Which Kd did it give?
The Kd was 0.426 nM.

And the koff?
Its koff is 0.00028 s⁻¹.

And the kon?
The kon was 656000 M⁻¹ s⁻¹.

Which Kd does the source give for B4 here?
Its Kd is 0.142 nM.

And the koff?
Its koff is 5.3e-05 s⁻¹.

What about the kon of the same binder?
Its kon is 372000 M⁻¹ s⁻¹.

What does the source list for B5?
Kd: 0.28 nM; koff: 0.0001 s⁻¹; kon: 358000 M⁻¹ s⁻¹
